Measured values from PMC10995091, “Novel glycosidase from Paenibacillus lactis 154 hydrolyzing the 28-O-β-D-glucopyranosyl ester bond of oleanane-type saponins” (Applied Microbiology and Biotechnology, 2024).

Tests used:
[1] = substrate: CC1(C)CC[C@]2(C(=O)O[C@@H]3O[C@H](CO)[C@@H](O)[C@H](O)[C@H]3O)CC[C@]3(C)C(=CC[C@@H]4[C@@]5(C)CC[C@H](O[C@@H]6O[C@H](C(=O)O)[C@@H](O)[C@H](O)[C@H]6O[C@@H]6O[C@H](CO)[C@@H](O)[C@H](O)[C@H]6O)C(C)(C)[C@@H]5CC[C@]43C)[C@@H]2C1; assay: initial rate of ZR1 formation from Ro; format: biochemical, Paenibacillus lactis; settings: recombinant free enzyme; pH and temperature of the kinetic run not given; hydrolysis of the C-28 glucosyl ester
purified protein = substrate: O=[N+]([O-])c1ccc(O[C@@H]2O[C@H](CO)[C@@H](O)[C@H](O)[C@H]2O)cc1; assay: purified protein; settings: recombinant free enzyme; pH and temperature of the kinetic run not given

B1: PlGH3 (Paenibacillus lactis; K755R/M754K) (protein)
chain: MRNHTLDTINKTEETVRYVQNPGGPTLGYSEESGVGIIEQDGLFFKDLSRDGKLDNYEDWRLTPEERAKDLASKMTVEQIAGLMLYSRHQSIPALSSGWFAGTYGGKTYEESGAKPWELTDEQIAFLTKDHVRHVLVTTVESPEVAARWNNKIQAFAEGTGLGIPANNSSDPRHASDSSSEFNAGAGGHISMWPETLGLAATFDPEITKKFGMIASREYRALGLATALSPQIDIATEPRWFRFNGTFGEDSKLAADMARAYVDGFQTSEGEREIADGWGYDSVNAMVKHWPGGGSGEAGRDAHYSCGKYAVYPGNNFDEHLVPFTEGAFKLDGKTGKASAVMPYYTISLGQDTVNGENVGNSYNSYLIRDLLRGKYGYDGVVCTDWMITADVSGPKDSFLSGKPWGVEDLTVGERHYKLQMAGVDQFGGNNEIEPVLEAYKIGVREHGEAYMRERFEQSAVRLLKNMFRLGLFENPYLDPQESATLVGNPEFMREGYEAQLKSIVMLKNKNGVLPLRAKSKVYIPKRFLPPGKDWFGNPTPESYDYPVNLEVVSKYFEVTDQPDEAEFGLVFITSPKSGTGYSQEDEERGGNGYVPISLQYKPYTAEHAREISLAGDEHGNEPRNRSYKGKTVIPHNTTDLNMVLETKEKMKGKPVIVSMLLCNPTVVSEFEAEVDAILANFGVQDQAMMEVLTGAAEPSGLLPMQMPAHMRTVEEQLEDVAHDMECHVDSEKHVYDFAFGMNWGGVIEDERTKRYRRS
notes: N-terminal His tag (pET-28a, BamHI/HindIII), E. coli BL21(DE3), Ni-NTA purified
[1]
  Km: 79.59 ± 3.42 µM
  kcat: 18.52 ± 0.28 s⁻¹
Purified protein
  Km: 22.76 ± 1.33 µM
  kcat: 46.18 s⁻¹
